Assay results reported in US20210393776A1 (FABION PHARMACEUTICALS, published 2021).
Where two headings read alike, the source gives them in different places.

T1: full length human EpCAM on CHO cells (human, UniProt P16422 24-314)
T1 construct: CHO cells stably expressing full length human EpCAM; also called hu-EpCAM-FL; human EpCAM-FL
T1 sequence: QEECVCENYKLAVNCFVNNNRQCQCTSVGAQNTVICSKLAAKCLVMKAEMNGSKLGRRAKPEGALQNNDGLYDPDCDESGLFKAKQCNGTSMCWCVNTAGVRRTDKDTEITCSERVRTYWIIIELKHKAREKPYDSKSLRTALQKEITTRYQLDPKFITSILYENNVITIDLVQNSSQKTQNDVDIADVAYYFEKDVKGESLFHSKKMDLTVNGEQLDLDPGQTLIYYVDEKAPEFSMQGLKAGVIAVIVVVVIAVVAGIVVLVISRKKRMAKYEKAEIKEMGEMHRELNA


Key:
[1] = molecular target: T2, recombinant cyno CD3epsilon/delta Fc(K-H) heterodimer (cynomolgus); experiment: ELISA, immobilised antigen, biotinylated protein, streptavidin-HRP, ABTS, OD405
T2 construct: also called cynomolgus CD3epsilon/delta; recombinant cyno CD3epsilon/delta heterodimeric Fc protein; copies: 1 + 1

[2] = molecular target: T3, human CD3epsilonAA1-27.Fc (human); experiment: as above
T3 construct: also called recombinant human CD3epsilon N-terminal peptide (aa1-27.Fc fusion); CD3epsilon N-terminal amino acid 1-27 peptide Fc fusion

[3] = molecular target: T1, full length human EpCAM on CHO cells; experiment: flow cytometry on CHO cells stably expressing full length human EpCAM, PE detection
Method: (§1) In general, cells were blocked in 1% BSA/PBS for 1 hr at 4 C and antibodies of interest were diluted into 1% BSA/PBS were added to blocked cells for incubation at 4° C. for 1 hr. after one wash with 1% BSA/PBS, staining procedures vary depending on the availability of antibodies or fluorescent antibody conjugate. In some case, direct fluorescence conjugates were used. In other cases, anti affinity tag antibodies (secondary antibody) were used to incubate with the cells followed by anti-species antibody conjugated with a particular fluorophore. In some other experiments, antibody (or other affinity reagent such as streptavidin) with fluorescence conjugate was used directly as secondary antibody (secondary reagent).

[4] = molecular target: T4, recombinant human CD3epsilon/delta Fc(K-H) heterodimer (human); experiment: ELISA, immobilised antigen, His6-tagged Fab, anti-His6 antibody HRP conjugate, ABTS, OD405
T4 construct: also called human CD3epsilon/delta knob and hole Fc heterodimer; copies: 1 + 1
Method: (§2) Humanized Fab proteins are his6 tagged at the C-terminus of Fd and the Fabs bound to the 96-well plate immobilized antigens were detected using anti his6 tag mouse antibody conjugated with HRP. ABTS was used as substrate and absorptions were measured at 405 nm.
(§3) MAXISORP® plates were used for ELISA binding assays. 50 μl of 1 μg/ml of antigens in 50 mM NaHCO₃were used to coat the plates at 4° C. overnight followed by incubation with 200 μl of 5% dry milk/TBS-0.05% TWEEN®-20 (i.e., polysorbate 20) (MTBS-T)/well. Antibodies were usually diluted in 5% MTBS-T and transferred to antigen coated plates and incubated for 1 hr with gentle shaking at room temperature. Bound antibodies were detected either by streptavidin-HRP (for detecting biotinylated antibodies) or anti-his tag-HRP conjugate (for his tagged antibodies). ABTS™ (i.e., 2,2′-azino-bis(3-ethylbenzothiazoline-6-sulphonic acid) solution in 50 mM citrate buffer was used for detection with OD405 measurement on using a microplate reader (Biotek).

[5] = molecular target: T3, human CD3epsilonAA1-27.Fc; experiment: as above
Method: as §2, §3

[6] = molecular target: T2, recombinant cyno CD3epsilon/delta …; experiment: ELISA, immobilised antigen, His6-tagged Fab, anti-His6 antibody HRP conjugate, ABTS, OD405 [continued) E]
Method: as §2, §3

[7] = molecular target: T4, recombinant human CD3epsilon/delta …; experiment: ELISA, immobilised antigen, His6-tagged Fab, anti-His6 antibody HRP conjugate, ABTS, OD405; remark: listed apart in the source
Method: as §2, §3

[8] = molecular target: T3, human CD3epsilonAA1-27.Fc; experiment: as above; remark: listed apart in the source
Method: as §2, §3

[9] = molecular target: T2, recombinant cyno CD3epsilon/delta …; experiment: ELISA, immobilised antigen, His6-tagged Fab, anti-His6 antibody HRP conjugate, ABTS, OD405 [continued) F]
Method: as §2, §3

[10] = molecular target: T1, full length human EpCAM on CHO cells; experiment: flow cytometry on CHO cells stably expressing full length human EpCAM, PE detection; remark: listed apart in the source
Method: as §1

T4 sequence (chain, as listed by the source mutant limits assumed, chain 1 of 2): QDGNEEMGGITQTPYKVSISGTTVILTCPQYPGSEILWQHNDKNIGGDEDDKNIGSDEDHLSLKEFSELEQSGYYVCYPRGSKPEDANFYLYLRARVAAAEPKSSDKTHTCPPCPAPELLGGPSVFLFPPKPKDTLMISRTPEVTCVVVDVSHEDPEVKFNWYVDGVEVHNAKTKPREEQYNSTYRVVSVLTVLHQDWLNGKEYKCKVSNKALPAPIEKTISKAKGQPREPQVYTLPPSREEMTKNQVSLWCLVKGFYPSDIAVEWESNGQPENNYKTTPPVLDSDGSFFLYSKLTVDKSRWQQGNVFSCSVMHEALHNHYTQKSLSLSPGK
T4 sequence (chain, as listed by the source mutant limits assumed, chain 2 of 2): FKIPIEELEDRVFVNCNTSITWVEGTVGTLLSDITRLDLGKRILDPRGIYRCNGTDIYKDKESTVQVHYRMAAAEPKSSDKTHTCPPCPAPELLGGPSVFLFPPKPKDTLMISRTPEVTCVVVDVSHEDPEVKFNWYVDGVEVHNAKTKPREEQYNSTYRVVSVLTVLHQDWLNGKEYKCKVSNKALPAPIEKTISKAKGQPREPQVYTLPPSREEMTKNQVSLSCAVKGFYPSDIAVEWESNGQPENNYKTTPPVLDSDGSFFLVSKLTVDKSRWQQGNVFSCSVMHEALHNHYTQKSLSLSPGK

| Binder | binding result [5] | binding result [7] | binding result [8] | binding result [9] | other results |
| --- | --- | --- | --- | --- | --- |
| EpCAM1.2-(L)-hu-1F3.1 Fab (bispecific antibody, member of group m20; also called EpCAM1.2-(L)-hu-1F3 Fab) heavy chain Fd (VH-CH1), unfused: EVQLVESGGGLVQPGGSLRLSCAASGFTFSTYAMNWVRQAPGKGLEWVSRIRSKYNNYATYYADSVKDRFTISRDDSKNTLYLQMNSLRAEDTAVYYCARHGNFGNSYVSWFAYWGQGTMVTVSSASTKGPSVFPLAPCSRSTSESTAALGCLVKDYFPEPVTVSWNSGALTSGVHTFPAVLQSSGLYSLSSVVTVPSSNFGTQTYTCNVDHKPSNTKVDKTVGGGGSHHHHHHH light chain with anti-EpCAM scFv EpCAM1.2 at the N-terminus: EVQLVESGGGLVQPGGSLRLSCAASGFTFSNYWMSWVRQAPGKGLEWVANIKQDGSEKFYVDSVKGRFTISRDNAKNSLYLQMNSLRAEDMAVYYCARVGGAWELGYWGQGTLVTVSAGGGGSGGGGSGGGGSGAQSVLTQPPSVSGAPGQRVTISCTGSSSNIGSYYGVHWYQQLPGTAPKLLIYSDTNRPSGVPDRFSGSKSGTSASLAITGLQAEDEADYYCQSYDSSLSGRVFGGGTKLTVLGRAQAVVTQEPSLTVSPGGTVTLTCRSSTGAVTTSNYANWVQQKPGQAPRGLIGGTNKRAPGTPARFSGSLLGGKAALTLSGVQPEDEAEYYCALWYSNLWVFGGGTKLTVLGQPKAAPSVTLFPPSSEELQANKATLVCLISDFYPGAVTVAWKADSSPVKAGVETTTPSKQSNNKYAASSYLSLTPEQWKSHRSYSCQVTHEGSTVEKTVAPTECS |  |  |  |  | binding result [1]: binds; binding result [2]: binds; binding result [3]: binds |
| hu-1F3.3 Fab (Fab, V domains shown, His6 tag at the C-terminus of the Fd) VH: EVQLVESGGGLVQPGGSLRLSCAASGFTFSTYAMNWVRQAPGKGLEWVARIRSKYNNYATYYADSVKDRFTISRDDSKNTLYLQMNSLRAEDTAVYYCARHGNFGNSYVSWFAYWGQGTMVTVSS VL: QAVVTQEPSLTVSPGGTVTLTCRSSTGAVTTSNYANWVQQKPGQAPRGLIGGTNKRAPGTPARFSGSLLGGKAALTLSGVQPEDEAEYYCALWYSNLWVFGGGTKLTVL | binds |  |  |  | binding result [4]: binds; binding result [6]: binds |
| hu-1F3.8 Fab (Fab, V domains shown, His6 tag at the C-terminus of the Fd) VH: EVQLVESGGGLVQPGGSLRLSCAASGFTFSTYAMNWVRQAPGKGLEWVARIRSKYNNYATYYADSVKDRFTISRDDSKNTLYLQMNSLRAEDTAVYYCARHGNFGNSYVSWFAYWGQGTMVTVSS VL: QAVVTQEPSLTVSPGGTVTLTCRSSTGAVTTSNYANWFQQKPGQAPRGLIGGTNKRAPGTPARFSGSLLGGKAALTLSGVQPEDEAEYYCALWYSNLWVFGGGTKLTVLG |  | binds | binds | binds |  |
| hu-1F3.5 Fab (Fab, V domains shown, His6 tag at the C-terminus of the Fd; also called huIF3.5) VH: EVQLVESGGGLVQPGGSLRLSCAASGFTFNTYAMNWVRQAPGKGLEWVARIRSKYNNYATYYADSVKDRFTISRDDSKNTLYLQMNSLRAEDTAVYYCVRHGNFGNSYVSWFAYWGQGTMVTVSS VL: QAVVTQEPSLTVSPGGTVTLTCRSSTGAVTTSNYANWVQQKPGQAPRGLIGGTNKRAPGTPARFSGSLLGGKAALTLSGVQPEDEAEYYCALWYSNLWVFGGGTKLTVL |  |  |  |  | EC50 (read off the curve) [4]: ~3 nM; EC50 (read off the curve) [5]: ~2 nM; EC50 (read off the curve) [6]: ~2 nM |
| hu-1F3.10 Fab (Fab, V domains shown, His6 tag at the C-terminus of the Fd) VH: EVQLVESGGGLVQPGGSLRLSCAASGFTFNTYAMNWVRQAPGKGLEWVARIRSKYNNYATYYADSVKDRFTISRDDSKNTLYLQMNSLRAEDTAVYYCVRHGNFGNSYVSWFAYWGQGTMVTVSS VL: QAVVTQEPSLTVSPGGTVTLTCRSSTGAVTTSNYANWFQQKPGQAPRGLIGGTNKRAPGTPARFSGSLLGGKAALTLSGVQPEDEAEYYCALWYSNLWVFGGGTKLTVLG |  | binds | binds | binds |  |
| hu-1F3.9 Fab (Fab, V domains shown, His6 tag at the C-terminus of the Fd) VH: EVQLVESGGGLVQPGGSLRLSCAASGFTFSTYAMNWVRQAPGKGLEWVARIRSKYNNYATYYADSVKDRFTISRDDSKNTLYLQMNSLRAEDTAVYYCVRHGNFGNSYVSWFAYWGQGTMVTVSS VL: QAVVTQEPSLTVSPGGTVTLTCRSSTGAVTTSNYANWFQQKPGQAPRGLIGGTNKRAPGTPARFSGSLLGGKAALTLSGVQPEDEAEYYCALWYSNLWVFGGGTKLTVLG |  | binds | binds | binds |  |
| hu-1F3.7 Fab (Fab, V domains shown, His6 tag at the C-terminus of the Fd) VH: EVQLVESGGGLVQPGGSLRLSCAASGFTFNTYAMNWVRQAPGKGLEWVSRIRSKYNNYATYYADSVKDRFTISRDDSKNTLYLQMNSLRAEDTAVYYCARHGNFGNSYVSWFAYWGQGTMVTVSS VL: QAVVTQEPSLTVSPGGTVTLTCRSSTGAVTTSNYANWFQQKPGQAPRGLIGGTNKRAPGTPARFSGSLLGGKAALTLSGVQPEDEAEYYCALWYSNLWVFGGGTKLTVLG |  | binds | binds | binds |  |
| hu-1F3.6 Fab (Fab, V domains shown, His6 tag at the C-terminus of the Fd) VH: EVQLVESGGGLVQPGGSLRLSCAASGFTFSTYAMNWVRQAPGKGLEWVSRIRSKYNNYATYYADSVKDRFTISRDDSKNTLYLQMNSLRAEDTAVYYCARHGNFGNSYVSWFAYWGQGTMVTVSS VL: QAVVTQEPSLTVSPGGTVTLTCRSSTGAVTTSNYANWFQQKPGQAPRGLIGGTNKRAPGTPARFSGSLLGGKAALTLSGVQPEDEAEYYCALWYSNLWVFGGGTKLTVLG |  | binds | binds | binds |  |
| hu-1F3.2 Fab (Fab, V domains shown, His6 tag at the C-terminus of the Fd) VH: EVQLVESGGGLVQPGGSLRLSCAASGFTFNTYAMNWVRQAPGKGLEWVSRIRSKYNNYATYYADSVKDRFTISRDDSKNTLYLQMNSLRAEDTAVYYCARHGNFGNSYVSWFAYWGQGTMVTVSS VL: QAVVTQEPSLTVSPGGTVTLTCRSSTGAVTTSNYANWVQQKPGQAPRGLIGGTNKRAPGTPARFSGSLLGGKAALTLSGVQPEDEAEYYCALWYSNLWVFGGGTKLTVL | binds |  |  |  | binding result [4]: binds; binding result [6]: binds |
| hu-1F3.1 Fab (Fab, V domains shown, His6 tag at the C-terminus of the Fd; No entry is named hu-1F3-1LC; also called hu-1F3 Fab; humanized anti CD3 antibody Fab, hu-1F3) VH: EVQLVESGGGLVQPGGSLRLSCAASGFTFSTYAMNWVRQAPGKGLEWVSRIRSKYNNYATYYADSVKDRFTISRDDSKNTLYLQMNSLRAEDTAVYYCARHGNFGNSYVSWFAYWGQGTMVTVSS VL: QAVVTQEPSLTVSPGGTVTLTCRSSTGAVTTSNYANWVQQKPGQAPRGLIGGTNKRAPGTPARFSGSLLGGKAALTLSGVQPEDEAEYYCALWYSNLWVFGGGTKLTVL | binds |  |  |  | binding result [10]: no binding; binding result [4]: binds; binding result [6]: binds |
| hu-1F3.4 Fab (Fab, V domains shown, His6 tag at the C-terminus of the Fd) VH: EVQLVESGGGLVQPGGSLRLSCAASGFTFSTYAMNWVRQAPGKGLEWVARIRSKYNNYATYYADSVKDRFTISRDDSKNTLYLQMNSLRAEDTAVYYCVRHGNFGNSYVSWFAYWGQGTMVTVSS VL: QAVVTQEPSLTVSPGGTVTLTCRSSTGAVTTSNYANWVQQKPGQAPRGLIGGTNKRAPGTPARFSGSLLGGKAALTLSGVQPEDEAEYYCALWYSNLWVFGGGTKLTVL | binds |  |  |  |  |
